The source of these data is US20100150939A1.

Series [1] concerns the target 5 inhibiting periplasm out of 27 periplasm tested for ADAM10.
In series [2] the target is 6 activating periplasm out of 27 periplasm tested for ADAM10.
Series [3] deals with recombinant human ADAM10 (amino residues 18-672, Cat. No 936-AD) (human) (UniProt O14672).
Series [4] addresses 7 inhibiting periplasm out of 31 periplasm tested for ADAM9.
Series [5] deals with 9 activating periplasm out of 31 periplasm tested for ADAM9.

B1: recombinant human ADAM10 (amino residues 18-672, Cat. No 936-AD) (protein)
chain: GGQYGNPLNKYIRHYEGLSYNVDSLHQKHQRAKRAVSHEDQFLRLDFHAHGRHFNLRMKRDTSLFSDEFKVETSNKVLDYDTSHIYTGHIYGEEGSFSHGSVIDGRFEGFIQTRGGTFYVEPAERYIKDRTLPFHSVIYHEDDINYPHKYGPQGGCADHSVFERMRKYQMTGVEEVTQIPQEEHAANGPELLRKKRTTSAEKNTCQLYIQTDHLFFKYYGTREAVIAQISSHVKAIDTIYQTTDFSGIRNISFMVKRIRINTTADEKDPTNPFRFPNIGVEKFLELNSEQNHDDYCLAYVFTDRDFDDGVLGLAWVGAPSGSSGGICEKSKLYSDGKKKSLNTGIITVQNYGSHVPPKVSHITFAHEVGHNFGSPHDSGTECTPGESKNLGQKENGNYIMYARATSGDKLNNNKFSLCSIRNISQVLEKKRNNCFVESGQPICGNGMVEQGEECDCGYSDQCKDECCFDANQPEGRKCKLKPGKQCSPSQGPCCTAQCAFKSKSEKCRDDSDCAREGICNGFTALCPASDPKPNFTDCNRHTQVCINGQCAGSICEKYGLEECTCASSDGKDDKELCHVCCMKKMDPSTCASTGSVQWSRHFSGRTITLQPGSPCNDFRGYCDVFMRCRLVDADGPLARLKKAIFSPELYENIAE
As to B1, the figures for the “ADAM protease assay, fluorogenic peptide substrate ES003, periplasms containing Nanobodies” value in series [1] and in series [2] were 5 inhibited significantly (less than 40% residual activity) and 6 activated significantly (more than 200% initial activity), respectively.

B2: Nanobody 39-B1 (VHH)
VHH: EVQLVESGGGLVQAGGSLRLSCARSGRISNINIMAWYRQAPGKTRDMVAAIIGDSTNYADSVKGRFTISRDNAKNTVYLHMNRLKPEDTGVYYCKISGVDWGQGTQVTVSS
For the molecule B2, in series [3], the Percent activity compared to no periplasm (50x excess) is 67.1 percent.

B3: Nanobody 39-D8, E8 (VHH)
VHH: EVQLVESGGGLVRARGSLRLSCAASGGTFSRYAMGWFRQAPGKEREFVAAISRSGGNTYFTESVKGRFTMSRDNAKNTVYLQMNSLKPEDTAVYYCAARSAAVYTTTVYLVDFEYNYWGQGTQVTVSS
In the case of B3, the Percent activity compared to no periplasm (50x excess) in series [3] amounted to 76.4 percent.

B4: recombinant human ADAM9 (amino residues 1-697, R&D Systems, Cat. No. 939-AD) (protein)
chain: AARPGFQQTSHLSSYEIITPWRLTRERREAPRPYSKQVSYVIQAEGKEHIIHLERNKDLLPEDFVVYTYNKEGTLITDHPNIQNHCHYRGYVEGVHNSSIALSDCFGLRGLLHLENASYGIEPLQNSSHFEHIIYRMDDVYKEPLKCGVSNKDIEKETAKDEEEEPPSMTQLLRRRRAVLPQTRYVELFIVVDKERYDMMGRNQTAVREEMILLANYLDSMYIMLNIRIVLVGLEIWTNGNLINIVGGAGDVLGNFVQWREKFLITRRRHDSAQLVLKKGFGGTAGMAFVGTVCSRSHAGGINVFGQITVETFASIVAHELGHNLGMNHDDGRDCSCGAKSCIMNSGASGSRNFSSCSAEDFEKLTLNKGGNCLLNIPKPDEAYSAPSCGNKLVDAGEECDCGTPKECELDPCCEGSTCKLKSFAECAYGDCCKDCRFLPGGTLCRGKTSECDVPEYCNGSSQFCQPDVFIQNGYPCQNNKAYCYNGMCQYYDAQCQVIFGSKAKAAPKDCFIEVNSKGDRFGNCGFSGNEYKKCATGNALCGKLQCENVQEIPVFGIVPAIIQTPSRGTKCWGVDFQLGSDVPDPGMVNEGTKCGAGKICRNFQCVDASVLNYDCDVQKKCHGHGVCNSNKNCHCENGWAPPNCETKGYGGSVDSGPTYNEMNTALRD
As to B4, the “ADAM protease assay, fluorogenic peptide substrate ES003, periplasms containing Nanobodies” value in series [4] is recorded as 7 showed significant inhibition; in series [5] it was 9 were significantly activating.

B5: Nanobody 33-D1 (VHH)
VHH: EVQLVESGGGLVQAGDSLRLSCAATGRTFSSDAMGWFRQAPGKERAFVAGINYNSVYRYYTDSVEGRFTISRDNAKNTVYLQMNSLKPEDTAVYYCAADSDYYSLIGGRPVNYWGQGTQVTVSS
On to B5, for which the Percent activity compared to no periplasm (50x excess) in series [3] amounted to 85.6 percent.

B6: Nanobody 39-F1 (VHH)
VHH: EVQLVESGGGLVQAGGSLRLSCAASERIFSTYFMGWFRQAPGKEREFVAFISGNGGSTDYADSVKGRFAISRDNVKNTLYLQMSSLKPDDTAVYYCAVAGRQIKSTWGYWGQGTQVTVSS
As to B6, the Percent activity compared to no periplasm (50x excess) in series [3] was 144 percent.

B7: Nanobody 32-E1, E6, 39-A2 (VHH)
VHH: EVQLVESGGGLVQAGGSLRLSCAASERIFSTYFMGWFRQAPGKEREFVAFISGNGGSTDYADSVKGRFAISRDNVKNTLYLQMSSLKPDDTAVYYCAVAGRQIKSTWDYWGQGTQVTVSS
As to B7, the Percent activity compared to no periplasm (50x excess) in series [3] is 163 percent.

B8: Nanobody 39-C8 (VHH)
VHH: EMQLVESGGGLVQTGGSLRLSCAASGRTFTSYCVGWWRQAPGKERDVVAAITRGSNSTDYVDSVKGRFTISRDNAENTVYLQMNSLKPEDTAVYYCAADINCRNLYTGRPEYWGQGTQVTVSS
Take B8: the Percent activity compared to no periplasm (50x excess) in series [3] is 194 percent.

B9: Nanobody 39-D1 (VHH)
VHH: KVQLVESGGGLVQAGGSLRLSCAASGNIFINNAVGWYRQAPGKQREMVAAMLSGGSTNYADSVKGRFTISRDNAKNTVYLQMNSLKPEDTAVYYCNVQVNGTWARWGQGTQVTVSS
For the molecule B9, the Percent activity compared to no periplasm (50x excess) in series [3] is 84.6 percent.

B10: Nanobody 33-A1 (VHH)
VHH: EVQLVESGGGLVQAGGSLRLSCAASGDTFSRYSMGWFRQAPGKEREFVVYITRSGRTTYYQDSVKGRFTISRDNAKNTVYLQMNSLKPEDTAVYYCAAMRSGNVRYPERYDYWGQGTQVTVSS
As to B10, the Percent activity compared to no periplasm (50x excess) in series [3] was 86.5 percent.
